Data as given in PMC8813914, “The IGFBP3/TMEM219 pathway regulates beta cell homeostasis” (Nature Communications, 2022).

Biological target: T1, recombinant human IGFBP3 (insulin-like growth factor binding protein 3) (human, UniProt P17936 28-291)
T1 construct: as far as I recall the product is the mature protein without the signal peptide (about Gly28-Lys291); also called rh-IGFBP3; source: bought: R&D Systems, 8874-B3; expressed in S9-baculovirus, purity >95%
Test: SPR; Biacore 8 K
Conditions: both partners purified

T1 sequence (P17936 28-291): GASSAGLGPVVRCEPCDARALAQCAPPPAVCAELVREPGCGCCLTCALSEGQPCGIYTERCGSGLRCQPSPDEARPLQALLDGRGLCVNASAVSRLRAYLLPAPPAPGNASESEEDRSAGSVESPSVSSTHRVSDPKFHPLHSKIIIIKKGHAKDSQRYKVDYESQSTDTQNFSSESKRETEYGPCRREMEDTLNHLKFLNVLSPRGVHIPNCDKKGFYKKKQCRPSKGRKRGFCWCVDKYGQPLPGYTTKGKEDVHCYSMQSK

B1: ecto-TMEM219 (recombinant protein based on the TMEM219 extracellular domain) (domain or fragment)
chain: THRTGLRSPDIPQDWVSFLRSFGQLTLCPRNGTVTGKWRGSHVVGLLTTLNFGDGPDRNKTRTFQATVLGSQMGLKGSSAGQLVLITARVTTERTAGTCLYFSAVPGILPSSQPPISCSEEGAGNATLSPRMGEECVSVWSHEGLVLTKLLTSEELALCGSR
notes: TMEM219 extracellular domain, 162 amino acids as printed, molecular weight 18 kDa; Buffer 10 mM HEPES, 0.05% SDS, pH 7.5; also called newly generated recombinant protein based on TMEM219 extracellular portion; source: E. coli (vector pET30a), by Genscript, from inclusion bodies, one-step purification through Nickel column, purity >90%
Kd: 1010 nM
